The text below walks through data of US20210332115A1 (Sanofi, published 2021).

Where two headings read alike, the source gives them in different places.

For test [1], the target named is T1, Homo sapiens factor Bb protein (human, UniProt P00751 260-764).
T1 construct: Bought from CompTech (A155); also called complement factor Bb; human factor Bb
The test can be described thus: BLI Octet, biotinylated antibody on SA biosensors. Here is the method: Briefly, biotinylated antibodies were loaded onto SA Biosensors equilibrated in PBS, 0.1% BSA, 0.02% Tween-20 (assay buffer). After a 60 second baseline in assay buffer, antibodies were loaded onto the probes for 180 seconds, followed by another 60 second baseline. Association to human (Comptech) or cynomolgus monkey factor Bb (purified in-house) was measured for 300 seconds, followed by a 300 second dissociation. Kinetic parameters were calculated by the Octet Analysis software using a 1:1 binding model.
To determine whether the modification of the Fc portion of the antibodies affected affinity and species cross-reactivity, VH4/VK6-IgG4v2 and VH6/VK7-IgG4v2 were tested alongside their parental antibodies, VH4/VK6 and VH6/VK7, respectively, for their ability to bind human and cynomolgus monkey factor Bb by BLI. VH4/VK6-IgG4v2 and VH6/VK7-IgG4v2 contain mutations in the Fc region that increase the affinity for an Fc receptor.
(In general: Biolayer interferometry detects binding as a change in optical thickness at a sensor tip.)

Test [2] concerns the target T1, Homo sapiens factor Bb protein. The test can be described thus: BLI, multi-cycle kinetics, antibody loaded on anti-hIgG Fc sensors, human factor Bb in solution (100 nM to 0.14 nM), 1:1 fit. Here is the method: Multicycle kinetic analysis was performed on CHO and HEK-produced VH6/VK7-IgG4v2 antibodies using biolayer interferometry. Antibodies were diluted to 10 μg/mL in PBS+ 0.02%. Tween20, 0.1% BSA, 0.05% sodium azide and loaded onto anti-hIgG Fc sensors (pre-equilibrated in the same buffer) for 90 seconds followed by a 60-minute baseline in buffer. Binding of a concentration series of human factor Bb (Complement Technologies, #A155), ranging from 100 nM to 0.14 nM in 2-fold dilutions, was measured in a 300 second association in the same buffer, followed by a 300 second dissociation step.

For test [3] the target is unchanged. The test can be described thus: SPR single cycle kinetics; ratio against VH0/Vκ0. Here is the method: All single cycle kinetic experiments were run at 25° C. with HBS-P+running buffer (pH 7. 4) (GE Healthcare, Little Chalfont, UK).
(§1) Antibodies were diluted in running buffer to a final concentration of 1 μg/ml, based on concentrations assessed by ELISA titer. At the start of each cycle, antibodies were loaded onto Fc2, Fc3 and Fc4 of the Protein A chip (GE Healthcare, Little Chalfont, UK). IgGs were captured at a flow rate of 10 μl/min to give an immobilization level (RL) of ˜63 RU, the theoretical value to obtain an Rmax of ˜50 RU. The surface was then allowed to stabilize. Single cycle kinetic data was obtained with factor Bb (CompTech, Tyler, USA) as the analyte at a flow rate of 30 μl/min to minimize any potential mass transport limitations. Multiple repeats with the reference chimeric antibody were performed to check the stability of the surface and analyte over the kinetic cycles. The signal from the reference channel Fc1 (no antibody) was subtracted from that of Fc2, Fc3 and Fc4 to correct for differences in non-specific binding to a reference surface. A four point, two-fold dilution range from 0. 78 nM to 6. 25 nM factor Bb without regeneration between each concentration was used. The association phase for the four injections of increasing concentrations of factor Bb was monitored for 200 seconds each time and a single dissociation phase was measured for 200 seconds following the last injection of factor Bb. Regeneration of the Protein A surface was conducted using two injections of 10 mM glycine-HCL pH 1. 5.
Single cycle kinetics using cell culture supernatants were performed as described above. […] The relative KD was calculated by dividing the KD of the VH0/Vκ0 reference antibody by that of the humanized variant assayed in the same experiment.

For test [4] the target is unchanged. As to the kind of experiment: SPR single cycle kinetics, IgG on Protein A chip, factor Bb analyte. Here is the method:
(§2) In order to assess the binding of all humanized variants, single cycle kinetic analysis was performed on supernatants from transfected cell cultures. […] All single cycle kinetic experiments were run at 25° C. with HBS-P+running buffer (pH 7. 4) (GE Healthcare, Little Chalfont, UK).
as §1
The sensorgrams and fitted data for the single cycle kinetics are shown in FIGS. 1A-1D and the kinetic parameters measured for the interaction of factor Bb with each antibody are shown in Table 7. The relative KD was calculated by dividing the KD of the VH0/Vκ0 reference antibody by that of the humanized variant assayed in the same experiment.

Test [5] shares this target. Described as above. Here is the method:
as §2, §1
Single cycle kinetics using cell culture supernatants were performed as described above.
This is another data set of the same source.

Test [6] has the same target. The test can be described thus: competition ELISA on coated factor Bb; competitor murine parental antibody. Here is the method:
Factor Bb was diluted in 1× PBS to 1.0 μg/ml and 100 μl/well was coated overnight at 4° C. on a 96-well ELISA plate. The following day the plates were blocked for two hours at room temperature with 1% casein/PBS before washing 2× with PBS pH 7.4. In a 96-well dilution plate a fixed concentration of murine parental antibody (0.5 μg/ml, final concentration) was added in equal volume to a four-fold titration series of test antibody (starting from 45 μg/ml to 0.01 μg/ml, final concentration) diluted in blocking buffer. After washing the plate 3× with PBS-T, 100 μl of chimeric/test antibody mix was added to the ELISA plate. After incubating at room temperature for one hour, the plate was washed 3× with PBS-T and 100 μl of anti-mouse IgG Fc-Specific HRP (Sigma, Dorset, UK) diluted 1:1000 in PBS-T was applied for one hour at room temperature to detect bound mouse antibody. For color development, the plate was washed 3× with PBS-T following which 100 μl of TMB substrate was added and incubated for approximately five minutes at room temperature. The reaction was stopped with 50 μl of 3.0 M hydrochloric acid and absorbance was read immediately using a DYNEX ® plate reader at 450 nm.
IC50 values were calculated for each variant and relative IC50 values were calculated by dividing the IC50 of the humanized variant by that of the chimeric antibody assayed on the same plate (Table 11).
For orientation: An ELISA detects its analyte on a solid surface through an enzyme-linked reagent.

T1 sequence (P00751 260-764 limits assumed): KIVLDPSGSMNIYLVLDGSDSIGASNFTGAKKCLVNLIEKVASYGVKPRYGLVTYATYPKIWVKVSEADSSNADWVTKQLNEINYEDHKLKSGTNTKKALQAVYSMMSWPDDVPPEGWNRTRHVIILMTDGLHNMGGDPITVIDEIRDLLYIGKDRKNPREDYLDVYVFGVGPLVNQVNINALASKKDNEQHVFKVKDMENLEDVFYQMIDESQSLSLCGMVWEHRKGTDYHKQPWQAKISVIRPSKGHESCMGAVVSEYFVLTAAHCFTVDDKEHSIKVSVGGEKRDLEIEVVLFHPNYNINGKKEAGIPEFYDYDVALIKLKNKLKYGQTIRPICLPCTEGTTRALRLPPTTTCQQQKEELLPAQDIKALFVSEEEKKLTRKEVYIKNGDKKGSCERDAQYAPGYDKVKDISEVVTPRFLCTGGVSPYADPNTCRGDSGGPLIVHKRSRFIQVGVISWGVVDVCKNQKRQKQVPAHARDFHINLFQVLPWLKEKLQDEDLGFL

B1: VH6/Vκ7-IgG4v2 (antibody)
heavy: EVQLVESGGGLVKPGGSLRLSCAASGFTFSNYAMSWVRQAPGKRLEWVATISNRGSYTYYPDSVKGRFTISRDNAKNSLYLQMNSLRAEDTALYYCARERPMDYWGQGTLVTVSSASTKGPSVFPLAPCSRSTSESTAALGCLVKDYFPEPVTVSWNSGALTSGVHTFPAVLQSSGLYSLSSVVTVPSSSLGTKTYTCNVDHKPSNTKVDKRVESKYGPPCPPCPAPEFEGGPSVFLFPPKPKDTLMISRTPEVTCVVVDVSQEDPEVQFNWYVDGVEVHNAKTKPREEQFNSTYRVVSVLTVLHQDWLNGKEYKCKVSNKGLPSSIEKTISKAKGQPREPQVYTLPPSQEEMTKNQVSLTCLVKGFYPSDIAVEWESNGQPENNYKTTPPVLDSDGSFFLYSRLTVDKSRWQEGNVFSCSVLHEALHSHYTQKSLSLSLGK
light: DIQMTQSPSTLSASVGDRVTITCKASQDVGTAVAWYQQKPGKAPKLLIYWASTRHTGVPDRFSGSGSGTDFTLTISSLQAEDFAVYFCHQHSSNPLTFGQGTKLEIKRTVAAPSVFIFPPSDEQLKSGTASVVCLLNNFYPREAKVQWKVDNALQSGNSQESVTEQDSKDSTYSLSSTLTLSKADYEKHKVYACEVTHQGLSSPVTKSFNRGEC
notes: also called VH6/VK7-IgG4v2; VH6/VK7-IgG4v2_HEK
As to B1, the Kd in test [1] came out at 1.7 nM; in test [2], 2.9 nM.

B2: VH0/Vκ0 (Chimeric) (antibody, V domains shown)
VH: EVQLVESGGALVKPGGSLKLSCAASGFTFSNYAMSWVRQTPEKRLEWVATISNRGSYTYYPDSVKGRFTISRDNAKNTLYLQMSSLRSEDTALYYCARERPMDYWGQGTSVTVSS
VL: DIVMTQSHKFMSTSVGDRVSITCKASQDVGTAVAWYQQKPGQSPKLLIYWASTRHTGVPDRFTGSGSGTDFTLTITNVQSEDLAVYFCHQHSSNPLTFGAGTKLELK
notes: also called chimeric antibody
As for B2, the “Relative KD” value in test [3] was 1. In test [4], the Kd is 1.76 nM, the koff came out at 0.00103 s⁻¹ and the on-rate (kon) is 585000 M⁻¹ s⁻¹. In test [5], this molecule registered a Kd of 1.77 nM, a koff of 0.000949 s⁻¹ and a kon of 535000 M⁻¹ s⁻¹. Moreover, in test [6], the IC50 was 1.23 nM.

Broadly, the Kd is the free concentration of one partner at which half of the binding sites on the other are occupied at equilibrium, for simple one-to-one binding. In general, koff refers to the first-order rate constant of dissociation. A lower koff goes with a long-lived complex. The term kon denotes the second-order rate constant of association. Low readings indicate slow association, high ones fast association. In general, IC50 refers to the concentration that inhibits the measured activity by half.
